Target: endogenous Tom40 (N. crassa (endogenous in isolated mitochondria)) (UniProt P24391)
Experiment: cross-linking

## endogenous Tom40 (from UniProt P24391 1-349) (natural protein)
  stoichiometry N: 2

— article PMC2156174
